# From patent US6084068, “Elongin A and C functional domains” (Oklahoma Medical Research Foundation, dated 2000)
# T1: Elongin BC complex (wild type rat Elongin B and C) (rat, UniProt P62870)
# T1 chain 1: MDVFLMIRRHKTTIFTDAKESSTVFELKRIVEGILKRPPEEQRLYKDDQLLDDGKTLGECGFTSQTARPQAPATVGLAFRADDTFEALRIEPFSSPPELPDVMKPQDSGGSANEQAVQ
# T1 chain 2: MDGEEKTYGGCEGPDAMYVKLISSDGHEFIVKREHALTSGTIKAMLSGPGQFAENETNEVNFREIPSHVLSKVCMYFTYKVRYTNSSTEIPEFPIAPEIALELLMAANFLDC
# Biological target: T1, Elongin BC complex (wild type rat …)
# Test: refolded with wild type Elongin B and C; TSK SP-NPR HPLC, SDS-PAGE, silver staining
row,Binder,binding result
1,Elongin A internal deletion mutant Δ561-564 (other) MAAESALQVVEKLQARLAANPDPKKLLKYLKKLSVLPITVDILVETGVGKTVNSFRKHEQVGNFARDLVAQWKKLVPVERNNEAEDQDFEKSNSRKRPRDVPQQEEEAEGNYQESWQASGSQPYSPEHRQKKHRKLPELERPHKVAHGHERRDERKRCHKVSPPYSSDPESSDYGHVQSPPPSSPHQMYTDLSRSPEMDQEPIVSHPKPGKVHSNTFQDRLGVSHLGEHQGKGAVSQNKPHKSSHKEKRPVDARGDEKSSVMGREKSHKASSKEESRRLLSEDSAKEKLPSSVVKKEKDREGNSLKKKLSPALDVASDNHFKKPKHKDSEKIKSDKNKQSVDSVDSGRGTGDPLPRAKDKVPNNLKAQEGKVRTNSDRKSPGSLPKVEEMDMDDEFEQPTMSFESYLSYDQPRKKKKKVVKTSGTALGEKGLKKKDSKSTSKNLNSAQKLPKANENKSDKLQPAGAEPTRPRKVPTDVLPALPDIPLPAIQTNYRPLPSLELISSFQPKRKAFSSPQEEEEAGFTGRRMNSKMQVYSGSKCAYLPKMMTLHQQCIRVLKNIFEVGGVPYSVLEPVLERCTPDQLYRIEECNHVLIEETDQLWKVHCHRDFKEERPEEYESWREMYLRLQDAREQRLRLLTNNIRSAHANKPKGRQAKMAFVNSVAKPPRDVRRRQEKFGTGGAAVPEKVRIKPAPYTTGSSHVPASNSSSSFHSSPEELAYEGPSTSSAHLAPVASSSVSYDPRKPAVKKIAPMMAKTIKAFKNRFSRR,binds
2,Elongin A internal deletion mutant Δ565-568 (other) MAAESALQVVEKLQARLAANPDPKKLLKYLKKLSVLPITVDILVETGVGKTVNSFRKHEQVGNFARDLVAQWKKLVPVERNNEAEDQDFEKSNSRKRPRDVPQQEEEAEGNYQESWQASGSQPYSPEHRQKKHRKLPELERPHKVAHGHERRDERKRCHKVSPPYSSDPESSDYGHVQSPPPSSPHQMYTDLSRSPEMDQEPIVSHPKPGKVHSNTFQDRLGVSHLGEHQGKGAVSQNKPHKSSHKEKRPVDARGDEKSSVMGREKSHKASSKEESRRLLSEDSAKEKLPSSVVKKEKDREGNSLKKKLSPALDVASDNHFKKPKHKDSEKIKSDKNKQSVDSVDSGRGTGDPLPRAKDKVPNNLKAQEGKVRTNSDRKSPGSLPKVEEMDMDDEFEQPTMSFESYLSYDQPRKKKKKVVKTSGTALGEKGLKKKDSKSTSKNLNSAQKLPKANENKSDKLQPAGAEPTRPRKVPTDVLPALPDIPLPAIQTNYRPLPSLELISSFQPKRKAFSSPQEEEEAGFTGRRMNSKMQVYSGSKCAYLPKMMTLHQQCIRVLKNNIDSGGVPYSVLEPVLERCTPDQLYRIEECNHVLIEETDQLWKVHCHRDFKEERPEEYESWREMYLRLQDAREQRLRLLTNNIRSAHANKPKGRQAKMAFVNSVAKPPRDVRRRQEKFGTGGAAVPEKVRIKPAPYTTGSSHVPASNSSSSFHSSPEELAYEGPSTSSAHLAPVASSSVSYDPRKPAVKKIAPMMAKTIKAFKNRFSRR,binds
3,Elongin A mutant composed of residues 500 to 730 (other) LELISSFQPKRKAFSSPQEEEEAGFTGRRMNSKMQVYSGSKCAYLPKMMTLHQQCIRVLKNNIDSIFEVGGVPYSVLEPVLERCTPDQLYRIEECNHVLIEETDQLWKVHCHRDFKEERPEEYESWREMYLRLQDAREQRLRLLTNNIRSAHANKPKGRQAKMAFVNSVAKPPRDVRRRQEKFGTGGAAVPEKVRIKPAPYTTGSSHVPASNSSSSFHSSPEELAYEGPST,binds
4,Elongin A internal deletion mutant Δ545-548 (other) MAAESALQVVEKLQARLAANPDPKKLLKYLKKLSVLPITVDILVETGVGKTVNSFRKHEQVGNFARDLVAQWKKLVPVERNNEAEDQDFEKSNSRKRPRDVPQQEEEAEGNYQESWQASGSQPYSPEHRQKKHRKLPELERPHKVAHGHERRDERKRCHKVSPPYSSDPESSDYGHVQSPPPSSPHQMYTDLSRSPEMDQEPIVSHPKPGKVHSNTFQDRLGVSHLGEHQGKGAVSQNKPHKSSHKEKRPVDARGDEKSSVMGREKSHKASSKEESRRLLSEDSAKEKLPSSVVKKEKDREGNSLKKKLSPALDVASDNHFKKPKHKDSEKIKSDKNKQSVDSVDSGRGTGDPLPRAKDKVPNNLKAQEGKVRTNSDRKSPGSLPKVEEMDMDDEFEQPTMSFESYLSYDQPRKKKKKVVKTSGTALGEKGLKKKDSKSTSKNLNSAQKLPKANENKSDKLQPAGAEPTRPRKVPTDVLPALPDIPLPAIQTNYRPLPSLELISSFQPKRKAFSSPQEEEEAGFTGRRMNSKMQVYSGSKCAYLTLHQQCIRVLKNNIDSIFEVGGVPYSVLEPVLERCTPDQLYRIEECNHVLIEETDQLWKVHCHRDFKEERPEEYESWREMYLRLQDAREQRLRLLTNNIRSAHANKPKGRQAKMAFVNSVAKPPRDVRRRQEKFGTGGAAVPEKVRIKPAPYTTGSSHVPASNSSSSFHSSPEELAYEGPSTSSAHLAPVASSSVSYDPRKPAVKKIAPMMAKTIKAFKNRFSRR,binds

# Continued, values first:
row,binding result,Binder
1,binds,Elongin A mutant composed of residues 500 to 700 (other) LELISSFQPKRKAFSSPQEEEEAGFTGRRMNSKMQVYSGSKCAYLPKMMTLHQQCIRVLKNNIDSIFEVGGVPYSVLEPVLERCTPDQLYRIEECNHVLIEETDQLWKVHCHRDFKEERPEEYESWREMYLRLQDAREQRLRLLTNNIRSAHANKPKGRQAKMAFVNSVAKPPRDVRRRQEKFGTGGAAVPEKVRIKPAPY
2,binds,Elongin A internal deletion mutant Δ691-730 (other) MAAESALQVVEKLQARLAANPDPKKLLKYLKKLSVLPITVDILVETGVGKTVNSFRKHEQVGNFARDLVAQWKKLVPVERNNEAEDQDFEKSNSRKRPRDVPQQEEEAEGNYQESWQASGSQPYSPEHRQKKHRKLPELERPHKVAHGHERRDERKRCHKVSPPYSSDPESSDYGHVQSPPPSSPHQMYTDLSRSPEMDQEPIVSHPKPGKVHSNTFQDRLGVSHLGEHQGKGAVSQNKPHKSSHKEKRPVDARGDEKSSVMGREKSHKASSKEESRRLLSEDSAKEKLPSSVVKKEKDREGNSLKKKLSPALDVASDNHFKKPKHKDSEKIKSDKNKQSVDSVDSGRGTGDPLPRAKDKVPNNLKAQEGKVRTNSDRKSPGSLPKVEEMDMDDEFEQPTMSFESYLSYDQPRKKKKKVVKTSGTALGEKGLKKKDSKSTSKNLNSAQKLPKANENKSDKLQPAGAEPTRPRKVPTDVLPALPDIPLPAIQTNYRPLPSLELISSFQPKRKAFSSPQEEEEAGFTGRRMNSKMQVYSGSKCAYLPKMMTLHQQCIRVLKNNIDSIFEVGGVPYSVLEPVLERCTPDQLYRIEECNHVLIEETDQLWKVHCHRDFKEERPEEYESWREMYLRLQDAREQRLRLLTNNIRSAHANKPKGRQAKMAFVNSVAKPPRDVRRRQEKFGTGGAAVPSSAHLAPVASSSVSYDPRKPAVKKIAPMMAKTIKAFKNRFSRR
3,binds,Elongin A deletion mutant 400-773 (other) TMSFESYLSYDQPRKKKKKVVKTSGTALGEKGLKKKDSKSTSKNLNSAQKLPKANENKSDKLQPAGAEPTRPRKVPTDVLPALPDIPLPAIQTNYRPLPSLELISSFQPKRKAFSSPQEEEEAGFTGRRMNSKMQVYSGSKCAYLPKMMTLHQQCIRVLKNNIDSIFEVGGVPYSVLEPVLERCTPDQLYRIEECNHVLIEETDQLWKVHCHRDFKEERPEEYESWREMYLRLQDAREQRLRLLTNNIRSAHANKPKGRQAKMAFVNSVAKPPRDVRRRQEKFGTGGAAVPEKVRIKPAPYTTGSSHVPASNSSSSFHSSPEELAYEGPSTSSAHLAPVASSSVSYDPRKPAVKKIAPMMAKTIKAFKNRFSRR
